From US20240254229A1 (Molecular Partners, published 2024)
Several values for one entry are separate records, joined by “and”; a condition that tells them apart may be missing. Identical values can stand only once. Each block holds one binder with its values, some of them ahead of it.

How the values were obtained:
[1] = molecular target: T1, hCD123 (recombinant, construct not stated) (human, UniProt P26951 19-305, limits assumed); assay: switchSENSE, CD33 and CD123 on one chip; kon to CD123
T1 construct: also called CD123 (Ligand 2)
T1 sequence (looked up): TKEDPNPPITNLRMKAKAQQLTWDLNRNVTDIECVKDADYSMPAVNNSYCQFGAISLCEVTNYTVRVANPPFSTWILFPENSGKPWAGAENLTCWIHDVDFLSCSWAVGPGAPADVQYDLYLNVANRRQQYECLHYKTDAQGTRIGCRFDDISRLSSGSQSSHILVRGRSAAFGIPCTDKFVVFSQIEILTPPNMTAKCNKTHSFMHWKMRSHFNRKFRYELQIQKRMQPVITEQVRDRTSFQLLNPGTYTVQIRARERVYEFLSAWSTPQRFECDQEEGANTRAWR
Method: (§1) The designed ankyrin repeat proteins: DARPin® protein #20, DARPin® protein #21, DARPin® protein #22, DARPin® protein #27, DARPin® protein #40 and DARPin® protein #41 were tested in a concentration of 0.16 and 64 nM (in a buffer PE140 containing 10 mM Na2HPO4/NaH2PO4, 140 mM NaCl, 0.05% Tween20, 50 μM EDTA, 50 μM EGTA) for binding against two ligands hCD33 and hCD123, which both were immobilized simultaneously to DNA nanolevers, on the surface, at a pre-defined ratio (2:1, CD33:CD123) and 10% density (100:50) on an ADP-48-1-0 chip, where 100% density 1000 receptors/μm2 (preincubated R1-B48-CD123 and G1-A48-CD33 (100 nM) diluted in cNL-48 (dark)). Briefly the following steps were performed: [0724] Conjugation. Amine coupling of the two ligands (CD33 and CD123) to the DNA nanolever (A48, B48, respectively) and purification of the conjugates using the proFIRE® solution (Dynamic Biosensors GmbH) at 25° C. [0725] Evaluation of all the combined affinity and avidity of all different proteins to both ligands attached on the surface of an ADP chip using a DRX+ instrument (dynamic BIOSENSORS). [0726] Statistical analysis (repeatability from 2 to 5 times) including regeneration of the chip surface every concentration analyzed and long dissociation times and data were fitted using a bi-exponential global fit.

[2] = molecular target: T2, hCD33 (recombinant, construct not stated) (human, UniProt P20138 18-259, limits assumed); assay: switchSENSE, CD33 and CD123 on one chip; kon to CD33
T2 construct: also called CD33 (Ligand 1)
T2 sequence (P20138 18-259 limits assumed): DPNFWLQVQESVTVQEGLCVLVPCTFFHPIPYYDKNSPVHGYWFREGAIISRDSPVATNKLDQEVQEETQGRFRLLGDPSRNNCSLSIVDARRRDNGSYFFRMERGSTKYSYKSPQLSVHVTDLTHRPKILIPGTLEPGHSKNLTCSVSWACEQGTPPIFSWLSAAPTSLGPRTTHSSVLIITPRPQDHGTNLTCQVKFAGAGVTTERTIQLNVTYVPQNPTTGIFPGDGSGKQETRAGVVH
Method: as §1

[3] = molecular target: T1, hCD123 (recombinant, construct not …); assay: switchSENSE; KD,1 (affinity); KD,1 (affinity), CD123
Method: as §1

[4] = molecular target: T1, hCD123 (recombinant, construct not …); assay: switchSENSE, CD33 and CD123 on one chip
Method: as §1

[5] = molecular target: T2, hCD33 (recombinant, construct not …); assay: switchSENSE, CD33 and CD123 on one chip
Method: as §1

[6] = molecular target: T3, hCD33 and hCD123 immobilized simultaneously on one switchSENSE chip (ratio 2:1, CD33:CD123) (human, UniProt P20138 18-259; P26951 19-305, limits assumed); assay: switchSENSE, CD33 and CD123 on one chip; slow phase (avidity); slow phase (avidity)
T3 construct: Not a complex: two separate ligands on one surface; used for avidity values and for off-rates; also called both ligands; both targets attached to the surface of the chip
T3 sequence (P20138 18-259 limits assumed, one chain of several): as the sequence (P20138 18-259 limits assumed) above

[7] = molecular target: T3, hCD33 and hCD123 immobilized …; assay: switchSENSE, CD33 and CD123 on one chip; fast phase (affinity); fast phase (affinity)
Method: as §1

[8] = molecular target: T3, hCD33 and hCD123 immobilized …; assay: switchSENSE, hCD33 and hCD123 co-immobilised 2:1; panel headed CD123, column KD2 (avidity, simultaneous binding of CD33 and CD123 per paragraph 694)
Method: as §1

[9] = molecular target: T3, hCD33 and hCD123 immobilized …; assay: switchSENSE, CD33 and CD123 on one chip; slow phase (avidity)
Method: as §1

[10] = molecular target: T1, hCD123 (recombinant, construct not …); assay: switchSENSE, hCD33 and hCD123 co-immobilised 2:1; panel headed CD123, column KD1 (affinity)
Method: as §1

[11] = molecular target: T2, hCD33 (recombinant, construct not …); assay: switchSENSE; KD,1 (affinity); KD,1 (affinity), CD33
Method: as §1

[12] = molecular target: T2, hCD33 (recombinant, construct not …); assay: switchSENSE, hCD33 and hCD123 co-immobilised 2:1; panel headed CD33, column KD1 (affinity)
Method: as §1

[13] = molecular target: T3, hCD33 and hCD123 immobilized …; assay: switchSENSE, hCD33 and hCD123 co-immobilised 2:1; panel headed CD33, column KD2 (avidity, simultaneous binding of CD33 and CD123 per paragraph 694)
Method: as §1

[14] = molecular target: T3, hCD33 and hCD123 immobilized …; assay: switchSENSE, CD33 and CD123 on one chip; fast phase (affinity)
Method: as §1

[15] = molecular target: T4, biotinylated extracellular domain of human CD123 (SEQ ID NO: 88), Fc and Avi tagged (human, UniProt P26951 19-303, biotinylated with BirA-GST (Avi tag)); assay: ribosome display selection, crude extract HTRF
T4 construct: also called hCD123
T4 sequence: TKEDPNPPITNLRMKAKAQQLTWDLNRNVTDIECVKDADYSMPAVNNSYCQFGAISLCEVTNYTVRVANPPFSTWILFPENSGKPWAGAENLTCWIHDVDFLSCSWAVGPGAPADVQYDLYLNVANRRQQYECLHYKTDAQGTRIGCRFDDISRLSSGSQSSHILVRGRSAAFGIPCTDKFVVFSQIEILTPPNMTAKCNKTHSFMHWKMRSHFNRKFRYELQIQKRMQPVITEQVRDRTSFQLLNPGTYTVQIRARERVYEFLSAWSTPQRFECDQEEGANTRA

[16] = molecular target: T2, hCD33 (recombinant, construct not …); assay: switchSENSE, hCD33 and hCD123 co-immobilised 2:1; panel headed CD33, column KD1; KD2 printed N.A.
Method: as §1

[17] = molecular target: T1, hCD123 (recombinant, construct not …); assay: switchSENSE, hCD33 and hCD123 co-immobilised 2:1; panel headed CD123
Method: as §1

[18] = molecular target: T2, hCD33 (recombinant, construct not …); assay: switchSENSE, CD33 and CD123 on one chip; monophasic; CD33-only control, monophasic
[19] = molecular target: T2, hCD33 (recombinant, construct not …); assay: switchSENSE, hCD33 and hCD123 co-immobilised 2:1; panel headed CD33
Method: as §1

[20] = molecular target: T1, hCD123 (recombinant, construct not …); assay: switchSENSE, CD33 and CD123 on one chip; monophasic; CD123-only control, monophasic
[21] = molecular target: T1, hCD123 (recombinant, construct not …); assay: switchSENSE, hCD33 and hCD123 co-immobilised 2:1; panel headed CD123, column KD1; KD2 printed N.A.
Method: as §1

kon [1]: 7e+06 M⁻¹ s⁻¹
kon [2]: 1.3e+06 M⁻¹ s⁻¹
Kd [3]: ~4.9 nM
kon [4]: ~1e+07 M⁻¹ s⁻¹
kon [5]: ~1e+06 M⁻¹ s⁻¹
koff [6]: 0.0015 s⁻¹
koff [7]: 0.03 s⁻¹
Kd [8]: 0.29 nM
koff [9]: ~0.001 s⁻¹ and 0.001 s⁻¹
Kd [10]: 4.9 nM
Kd [11]: ~17.6 nM
Kd [12]: 18 nM
Kd [13]: 0.7 nM
koff [14]: ~0.01 s⁻¹ and 0.02 s⁻¹
B1: DARPin® protein #20 (designed binder)
chain: DLGKKLLEAARAGQDDEVRILMANGADVNALDWLGHTPLHLAAYEGHLEIVEVLLKNGADVNAIDDNNGFTPLHLAAIDGHLEIVEVLLKNGADVNAQDKFGKTAFDISIDNGNEDLAEILQKAAGSPTPTPTTPTPTPTTPTPTPTGSDLGDKLLLAATSGQDDEVRILLAAGADVNAKDYDGDTPLHLAADEGHLEIVEVLLKAGADVNAKDYSGSTPLHAAAAYGHLEIVEVLLKAGADVNAQDVFGYTPADLAAYVGHEDIAEVLQKAAGSPTPTPTTPTPTPTTPTPTPTGSDLGQKLLEAAWAGQDDEVRILLAAGADVNAKNSRGWTPLHTAAQTGHLEIFEVLLKAGADVNAKNDKRVTPLHLAAALGHLEIVEVLLKAGADVNARDSWGTTPADLAAKYGHGDIAEVLQKLA
notes: CD123-CD33-CD3; also called αCD123-αCD33-αCD3_1

binding result [15]: binds
B2: DARPin® protein #35 (designed binder)
chain: DLGKKLLEAALEGQDDEVRELLKAGADVNAKDQEGYTPLHLAAALGHLEIVEVLLKAGADVNAKDSIGRTPLHLAAYKGHLEIVEVLLKAGADVNAQDLLGETPADLAAEQGHEDIAEVLQKAA
notes: CD123-specific domain; screened as crude extract

Kd [16]: 7.1 nM
binding result [17]: no binding
koff [18]: 0.01 s⁻¹
B3: DARPin® protein #40 (designed binder)
chain: DLGKKLLEAARAGQDDEVRELLKAGADVNAKDKDGYTPLHLAAREGHLEIVEVLLKAGADVNAKDKDGYTPLHLAAREGHLEIVEVLLKAGADVNAQDKSGKTPADLAADAGHEDIAEVLQKAAGSPTPTPTTPTPTPTTPTPTPTGSDLGVKLLLAASRGQLDEVRILLKAGADVNAKDIDEGYTPLHIAAYYGHLEIVEVLLKAGADVNAKDRYGKTPLHLAAISGHLEIVEVLLKAGADVNAQDDKGDTPADLAADYGHQDIAEVLQKAAGSPTPTPTTPTPTPTTPTPTPTGSDLGQKLLEAAWAGQDDEVRELLKAGADVNAKNSRGWTPLHTAAQTGHLEIFEVLLKAGADVNAKDDKGVTPLHLAAALGHLEIVEVLLKAGADVNAQDSWGTTPADLAAKYGHEDIAEVLQKAA
notes: also called Ni2C-αCD33-αCD3

binding result [19]: no binding
koff [20]: 0.06 s⁻¹
Kd [21]: 4.2 nM
B4: DARPin® protein #41 (designed binder)
chain: DLGKKLLEAALEGQLDEVRELLKAGADVNAKDQEGYTPLHLAAALGHLEIVEVLLKAGADVNAKDSIGRTPLHLAAYKGHLEIVEVLLKAGADVNAQDLLGETPADLAAEQGHQDIAEVLQKAAGSPTPTPTTPTPTPTTPTPTPTGSDLGKKLLEAARAGQDDEVRELLKAGADVNAKDKDGYTPLHLAAREGHLEIVEVLLKAGADVNAKDKDGYTPLHLAAREGHLEIVEVLLKAGADVNAQDKSGKTPADLAADAGHEDIAEVLQKAAGSPTPTPTTPTPTPTTPTPTPTGSDLGQKLLEAAWAGQDDEVRELLKAGADVNAKNSRGWTPLHTAAQTGHLEIFEVLLKAGADVNAKDDKGVTPLHLAAALGHLEIVEVLLKAGADVNAQDSWGTTPADLAAKYGHEDIAEVLQKAA
notes: also called αCD123-Ni2C-αCD3
